The source of these data is US20180049457A1, “ENZYMATIC SYNTHESIS OF SOLUBLE GLUCAN FIBER” (E I DU PONT DE NEMOURS AND COMPANY, priority 2014, published 2018).

Sequences and labels used below:
B1: GTF0974T1: T1 C-terminal truncation of GTF0974, SEQ ID NO: 136, strain SG1304 (protein)
chain: INGKQYYVNSDGSVRKNFVFEQDGKSYYFDAETGALATKSQDEFSTEPIKATVDFSSGNQLYKNDDKSLDQLDTFITADAWYRPKSILKDGKTWTASTEADKRPLLMVWWPDKSTQVNYLNYMQNQGLGAGSFSTNSSQESLDQAAKAVQTKIEERIAREGNTNWLRTSIDQFIKTQPGWNSSTENSSYDHLQGGQLLFNNSKGDTGNRTSHANSDYRLLNRTPTNQTGTRKYFKDNSIGGLEFLLANDIDNSNPAVQAEQLNWLHFMMNIGSIMANDPTANFDGLRVDALDNVDADLLQIASDYFKAAYGVDKSEANAIKHLSYLEAWSANDPYYNKDTKGAQLPIDNALRNALTNLLMRDKNTRMQLGDMTAFINSSLNPRGANDKNGERMANYIFTRAHDTEAQTIIQRIIRDRINPNLFGYNFTRDEIKKAFEIYNEDIDKAHKTYASYNLPSVYALMLTNKDSVTRVYYGDLYREDGHYMAKKTPYFDAIDTLLRARIKYVAGGQDMEVKKVGNDGLLTSVRYGKGANNRTDLGTSETRTQGMGVIMTNNYDFRLGSNETVTMNMGRAHRNQLYRPLLLTTKDGIATYLNDSDVPKKLLKRTDWNGNLTFNANDVFGVENVQVSGYLGVWVPYGAKANQDARTQPSNRANSDGQVYKSSAALDSQVMYEAFSNFQAFADDQPELYMNRVLAKNTDLLKAWGITSVGLPPQYVSSKDGTFLDSTIDNGYAFDDRYDMALSQNNKYGSLEDLLNVLRALHKDGIQAIADWVPDQIYNLPGKEVVNATRVNGYGNHQVGYQIIDQAYVANTRTDGTDYQGKYGGAFLDELKAKYPSIFNRVQISNGKQLPTNEKITKWSAKYFNGTNILGRGINYVLRDDKTNQYFNTSANSQLLPTPLRDTGAIT
modifications: T1 C-terminal truncation of GTF0974
B2: GTF4336T1: T1 C-terminal truncation of GTF4336, SEQ ID NO: 142, strain SG1307 (protein)
chain: INGKQYYVNSDGSVRKNFVFEQDGKSYYFDAETGALATKSQDEFSTEPIKATVDFSSGNQLYKNDDKSLDQLDTFITADAWYRPKSILKDGKTWTASTEADKRPLLMVWWPDKSTQVNYLNYMQNQGLGAGSFSTNSSQESLDQAAKAVQTKIEERIAREGNTNWLRTSIDQFIKTQPGWNSSTENSSYDHLQGGQLLFNNSKGDTGNRTSHANSDYRLLNRTPTNQTGTRKYFKDNSIGGLEFLLANDIDNSNPAVQAEQLNWLHFMMNIGSIMANDPTANFDGLRVDALDNVDADLLQIASDYFKAAYGVDKSEANAIKHLSYLEAWSANDPYYNKDTKGAQLPIDNALRNALTNLLMRDKNTRMQLGDMTAFINSSLNPRGANDKNGERMANYIFTRAHDTEAQTIIQRIIRDRINPNLFGYNFTRDEIKKAFEIYNEDIDKAHKTYASYNLPSVYALMLTNKDSVTRVYYGDLYREDGHYMAKKTPYFDAIDTLLRARIKYVAGGQDMEVKKVGNDGLLTSVRYGKGANNRTDLGTSETRTQGMGVIMTNNYDFRLGSNETVTMNMGRAHRNQLYRPLLLTTKDGIATYFNDSDVPKNLLKRTDWNGNLTFNANDVFGVENVQVSGYLGVWVPVGAKANQDARTQPSNRANSDGQVYKSSAALDSQVMYEAFSNFQAFADDQPELYMNRVLAKNTDLLKAWGVTSVGLPPQYVSSKDGTFLDSTIDNGYAFDDRYDMALSQNNKYGSLEDLLNVLRALHKDGIQAIADWVPDQIYNLPGKEVVNATRVNGYGYHQQGYQIVDQAYVANTRTDGTDYQGKYGGAFLDELKAKYPSIFNRVQISNGKQLPTNEKITKWSAKYFNGTNILGRGINYVLRDDKTNQYFNTSANSQLLPTPLRDTGAIT
modifications: T1 C-terminal truncation of GTF4336
B3: GTF0974T2: T2 C-terminal truncation of GTF0974, SEQ ID NO: 138, strain SG1305 (protein)
chain: INGKQYYVNSDGSVRKNFVFEQDGKSYYFDAETGALATKSQDEFSTEPIKATVDFSSGNQLYKNDDKSLDQLDTFITADAWYRPKSILKDGKTWTASTEADKRPLLMVWWPDKSTQVNYLNYMQNQGLGAGSFSTNSSQESLDQAAKAVQTKIEERIAREGNTNWLRTSIDQFIKTQPGWNSSTENSSYDHLQGGQLLFNNSKGDTGNRTSHANSDYRLLNRTPTNQTGTRKYFKDNSIGGLEFLLANDIDNSNPAVQAEQLNWLHFMMNIGSIMANDPTANFDGLRVDALDNVDADLLQIASDYFKAAYGVDKSEANAIKHLSYLEAWSANDPYYNKDTKGAQLPIDNALRNALTNLLMRDKNTRMQLGDMTAFINSSLNPRGANDKNGERMANYIFTRAHDTEAQTIIQRIIRDRINPNLFGYNFTRDEIKKAFEIYNEDIDKAHKTYASYNLPSVYALMLTNKDSVTRVYYGDLYREDGHYMAKKTPYFDAIDTLLRARIKYVAGGQDMEVKKVGNDGLLTSVRYGKGANNRTDLGTSETRTQGMGVIMTNNYDFRLGSNETVTMNMGRAHRNQLYRPLLLTTKDGIATYLNDSDVPKKLLKRTDWNGNLTFNANDVFGVENVQVSGYLGVWVPYGAKANQDARTQPSNRANSDGQVYKSSAALDSQVMYEAFSNFQAFADDQPELYMNRVLAKNTDLLKAWGITSVGLPPQYVSSKDGTFLDSTIDNGYAFDDRYDMALSQNNKYGSLEDLLNVLRALHKDGIQAIADWVPDQIYNLPGKEVVNATRVNGYGNHQVGYQIIDQAYVANTRTDGTDYQGKYGGAFLDELKAKYPSIFNRVQISNGKQLPTNEKITKWSAKYFNGTNILGRGINYVLRDDKTNQYFNTSANSQLLPTPLRDTGAITSTQVFQRRGQDVYFLRDNQAVKNEFVQDGNGNWYYFGGDG
modifications: T2 C-terminal truncation of GTF0974
B4: GTF4336T2: T2 C-terminal truncation of GTF4336, SEQ ID NO: 144, strain SG1308 (protein)
chain: INGKQYYVNSDGSVRKNFVFEQDGKSYYFDAETGALATKSQDEFSTEPIKATVDFSSGNQLYKNDDKSLDQLDTFITADAWYRPKSILKDGKTWTASTEADKRPLLMVWWPDKSTQVNYLNYMQNQGLGAGSFSTNSSQESLDQAAKAVQTKIEERIAREGNTNWLRTSIDQFIKTQPGWNSSTENSSYDHLQGGQLLFNNSKGDTGNRTSHANSDYRLLNRTPTNQTGTRKYFKDNSIGGLEFLLANDIDNSNPAVQAEQLNWLHFMMNIGSIMANDPTANFDGLRVDALDNVDADLLQIASDYFKAAYGVDKSEANAIKHLSYLEAWSANDPYYNKDTKGAQLPIDNALRNALTNLLMRDKNTRMQLGDMTAFINSSLNPRGANDKNGERMANYIFTRAHDTEAQTIIQRIIRDRINPNLFGYNFTRDEIKKAFEIYNEDIDKAHKTYASYNLPSVYALMLTNKDSVTRVYYGDLYREDGHYMAKKTPYFDAIDTLLRARIKYVAGGQDMEVKKVGNDGLLTSVRYGKGANNRTDLGTSETRTQGMGVIMTNNYDFRLGSNETVTMNMGRAHRNQLYRPLLLTTKDGIATYFNDSDVPKNLLKRTDWNGNLTFNANDVFGVENVQVSGYLGVWVPVGAKANQDARTQPSNRANSDGQVYKSSAALDSQVMYEAFSNFQAFADDQPELYMNRVLAKNTDLLKAWGVTSVGLPPQYVSSKDGTFLDSTIDNGYAFDDRYDMALSQNNKYGSLEDLLNVLRALHKDGIQAIADWVPDQIYNLPGKEVVNATRVNGYGYHQQGYQIVDQAYVANTRTDGTDYQGKYGGAFLDELKAKYPSIFNRVQISNGKQLPTNEKITKWSAKYFNGTNILGRGINYVLRDDKTNQYFNTSANSQLLPTPLRDTGAITSTQVFQRRGQDVYFLRDNQAVKNEFVQDGNGNWYYFGADG
modifications: T2 C-terminal truncation of GTF4336
B5: GTF0974T6: T6 C-terminal truncation of GTF0974, SEQ ID NO: 140, strain SG1306 (protein)
chain: INGKQYYVNSDGSVRKNFVFEQDGKSYYFDAETGALATKSQDEFSTEPIKATVDFSSGNQLYKNDDKSLDQLDTFITADAWYRPKSILKDGKTWTASTEADKRPLLMVWWPDKSTQVNYLNYMQNQGLGAGSFSTNSSQESLDQAAKAVQTKIEERIAREGNTNWLRTSIDQFIKTQPGWNSSTENSSYDHLQGGQLLFNNSKGDTGNRTSHANSDYRLLNRTPTNQTGTRKYFKDNSIGGLEFLLANDIDNSNPAVQAEQLNWLHFMMNIGSIMANDPTANFDGLRVDALDNVDADLLQIASDYFKAAYGVDKSEANAIKHLSYLEAWSANDPYYNKDTKGAQLPIDNALRNALTNLLMRDKNTRMQLGDMTAFINSSLNPRGANDKNGERMANYIFTRAHDTEAQTIIQRIIRDRINPNLFGYNFTRDEIKKAFEIYNEDIDKAHKTYASYNLPSVYALMLTNKDSVTRVYYGDLYREDGHYMAKKTPYFDAIDTLLRARIKYVAGGQDMEVKKVGNDGLLTSVRYGKGANNRTDLGTSETRTQGMGVIMTNNYDFRLGSNETVTMNMGRAHRNQLYRPLLLTTKDGIATYLNDSDVPKKLLKRTDWNGNLTFNANDVFGVENVQVSGYLGVWVPYGAKANQDARTQPSNRANSDGQVYKSSAALDSQVMYEAFSNFQAFADDQPELYMNRVLAKNTDLLKAWGITSVGLPPQYVSSKDGTFLDSTIDNGYAFDDRYDMALSQNNKYGSLEDLLNVLRALHKDGIQAIADWVPDQIYNLPGKEVVNATRVNGYGNHQVGYQIIDQAYVANTRTDGTDYQGKYGGAFLDELKAKYPSIFNRVQISNGKQLPTNEKITKWSAKYFNGTNILGRGINYVLRDDKTNQYFNTSANSQLLPTPLRDTGAITSTQVFQRRGQDVYFLRDNQAVKNEFVQDGNGNWYYFGGDGKMTKGAQNINNKDYYFFDNGIQLRNALRRASNGYTYYYGLDGAMVKNAFVDFDDKHKQVRAFTTQG
modifications: T6 C-terminal truncation of GTF0974

This experiment can be described thus: GTF activity of strains (PAHBAH assay). As to conditions: Experiment Number 1; enzyme expressed in B. subtilis host. The experiment is classed as biochemical. The method, boiled down: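 Glucosyltransferase (GTF) activity of the bacterial strains was measured with the PAHBAH assay. The enzymes tested were truncated GTF variants produced in a Bacillus subtilis expression host. Measurements were split across three separate experiments, and each activity value is reported together with the experiment it came from because results varied slightly between experiments.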
With B1, the “GTF activity of strains: Acitivity” value is 18.4 U/mL.
As for B2, the “GTF activity of strains: Acitivity” value came to 9.4 U/mL.
To B3 belongs 7.2 U/mL.
As for B4, the “GTF activity of strains: Acitivity” value was 11.5 U/mL.
Take B5: the “GTF activity of strains: Acitivity” value stood at 33.7 U/mL.
